From US20020193329A1 (published 2002)

Target: T1, Her-2/neu peptide on HLA-B*44:02 (human)
T1 peptide: EEYLVPQQGF
Assay: cytokine release
Protocol: This example describes the charaterization of the epitope recognized by one of the T cell clones described above, 17D5. This clone recognized APC expressing the ICD or full-length Her-2/neu protein. The HLA-restriction element for the clone was determined to be HLA-B4402 by using a panel of allogenic cell lines matched at various HLA alleles with the T cell clone as APC in gamma interferon Elispot assays. This was confirmed by transduction of HLA-B44-negative, Her-2/neu-positive APC with a B4402-recombinant retrovirus to confer recognition. The region of the ICD recognized by the clone was narrowed by using recombinant retroviruses expressing a series of five fragments of the ICD to transduce B44+APC. […] Predicted B44-binding 9 mer and 10 mer peptides from within this fragment were chosen and synthesized. Of the 13 peptides synthesized, one was recognized by the clone and determined to be the epitope. […] The sequence of this naturally processed Her-2/neu epitope is: […] (SEQ ID NO: 3), position 1021-1030 in the Her-2/neu protein sequence.

- binding result: recognises
B1: TCR of the 17D5 T cell clone (TCR, V domains shown)
Valpha: AQSVAQPEDQVNVAEGNPLTVKCTYSVSGNPYLFWYVQYPNRGLQFLLKYITGDNLVKGSYGFEAEFNKSQTSFHLKKPSALVSDSALYFCAVRPNSGYSTLTFGKGTMLLVSP
Vbeta: EAQVTQNPRYLITVTGKKLTVTCSQNMNHEYMSWYRQDPGLGLRQIYYSMNVEVTDKGDVPEGYKVSRKEKRNFPLILESPSPNQTSLYFCASSLDWGGLAGGLGTDTQYFGPGTRLTVL
